Reference: the domain aggregation screens of Martell et al. (2025)

Test: soluble fraction after stress (log2 fold change); higher = more stays soluble; pooled small domains, quantitative proteomics
Settings: stress: pH 4
Procedure, shortened: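 Custom libraries of small protein domains were pooled and measured with high-throughput quantitative proteomics after pH 4 stress. The read-out is the fold change in the amount of each domain that stays soluble after the acid stress, taken as a measure of aggregation propensity. Fold changes are on a log2 scale, and higher values mean more of the domain stayed soluble.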

In order of falling “soluble fraction (log2)” value:
1. HMKQVSDTGAIDAAIREVMDANPDKVAEYRSGKDKLFGFFVGQIMRAMAGKAAPVVVNDRLKALLD  0.32
2. HMGNEMQVPNVAGKTVDEAIEIFNNMGLKVAAENKYAQSDDVKEGDVVKTDPSSGRNVKKGSEITLYISQG  0.291
3. HMDVLSQYGSRGEEVGKIQTRLKSWGYFSGEVTGYYGSQTTEAVKRFQQKHGLSATGVADRKTLELIGIS  0.22
4. HMDFRVGVWVELVQQRRSVRTQLTWVSPQHTLFLFTAKDGSTQSMTLRMRDKLLAEGNLRIVAPPSR  0.22
5. HMQPDYRVLYSNFSDKDGGAIVAALEKMNVPYKFSEGGSAILVPAGQVHQARLKLAADGLPK  0.205
6. HMQETMTNDEVISLTKAGLSSSIIIGKIRSSATNFDLSTDSLIKLKQAGVSDETVAAMLEAKS  0.181
7. HMTKTSQEDEDIMRHLDELHTRWPFLGQRKLIEELKDQGIQIGRKRLRRLMKVMGIEAIAPK  0.173
8. HMGVDMGPAKYVGQKALTATEMRPAGKIQIGQTVFDAVSVGPFIGARKAVKVIKYENAQLYVEPE  0.116
9. HMNPAYTDSRMKTFLEELPVMKASLSQKHVTRFLVWQEYIGRHPDGYGKSQFFYHLKQNLVAAKG  0.0452
10. HMGAAIEYGDRGNTVLQAQRLLIARGYMAGSADGIYGRQMEQAVKRFQKEQGLPESGVVDRRTLQVLIRSR  0.04
11. HMNPNPYIVLGVDKSMPFGEIKKVYQRKRREFHPDSLVAKGLPDELLQKAQDKFIAIQEAYKSIEKNQV  0.0331
12. HMHEHWDGSGFPKHLRGANIPLGARVIAVADTYDSITSSRAYRAGSTHEAAEREMRRVSGTQLDPE  0.0226
13. HMEFYYSDLVGMIVYDTGGNELGKVQAVLNHGAGDLLEIHGVNLKTSILIPFTKEAVPTVDIAARRIVTDP  0.00543
14. HMINRMGRLVEALSHMIANTKPGARLPSEPELARQLGVSRATLREAMRTFEAQGMIHRRQGAGTFVVH  0.00515
15. HMLPKILVMDGKVNKNALTTLGKDEEWVKKVLRNHNIHSIKDVLLALYDTKGKFQYQLYDDYEK  -0.019
16. HMAAGVESLTEKEFAVASLVGGGASNREIAERLAMSERTVKSHLSSIFRKMDVRDRVQLALAMND  -0.0425
17. HMKRVTRQRTEILRVIDESERPLGPQEILQAGREAIPSLSIATIYRTLRDLLAEELIKTVALPGDSPRYES  -0.0601
18. HMVVKSPLEMAFDKFREMRKKIRKPMTERAEELIWKELSKLAGEDSDLKIEILEQSIRNGWQDVYAVK  -0.064
19. HMSKKLLVLQTSDDAKAKDVLSQNGYQLDDGDKLSIIETEQTKMADVIKLLSDNAIDIEDVQHVH  -0.116
20. HMFPDLTGDELRIVDLLNTANDLQVNIITAKTNLPISRVTSLLFQLEMKGVVKPLAGGMYHLLG  -0.117
21. HMGASFITSSKDNAINIRESATTDSKVIETIKNGEILESTEKSGDWHKVTYYNSEIKKSFTGYIHNSQLK  -0.151
22. HMNTYEIIGGDNRARGPVTGEELSQWIREGRASGHTMARVSDGEHWQPLGSFPEFVGPLQGLPW  -0.163
23. HMPTFAEKLHEVRKARDFTQDQLAKEMNVSRQTISHWENGRAVPDIDTIKHLSQVLDYNFLV  -0.171
24. HMQALTLVGQDAKDAKAALDAVDIQPAKTETDRYIYVLTEQQAQELGRTVDALYGVEGSLTLILEV  -0.207
25. HMDINLGIGPLVKKYRTIKGYSIRELARNINVTASMLSQIERDIVNPSINTLKAISVELGVPMYKFFM  -0.217
26. HMVSGLEILKIQVQDHPSDWRWALLLARTHYENGNREAAVRTLRPLQRLHPDRLEVMTLWALLA  -0.222
27. HMITPAARLRALKIRLSVDEVAQIVQRLVNGETVYQIGKPDTGGHAKATVGKINALRLAGQLHFL  -0.259
28. HMETLKINTHLGTLNLKKRGKKGTWQINIYFKNIEGDNHYRQSTGTNQLELAKAKAMNMITTEYSNRLAGI  -0.259
29. HMDPEEQIQSREIWEAVERALDGMQEKGRRVVIALLEGQTQLEVSRAAGISQPLISYYLKSFRTKVRTELG  -0.269
30. HMSFPQVELNTNKGRIVLELNSEKAPKTVANFLEYVRDGFYDGVIFHRVIDGFMIQGGGFDENFKEKA  -0.275
31. HMKKEETEAEELEEKFTSAQIKQAYGILNDPRYKQGNYSGAVNVINKIAPGLADHPDVKNALKRANEEL  -0.323
32. HMYLPLREVVFNALRTAIIHGEFKPGERLMEMHLAKSLGVSRTPVREAMRMLELEGLVVMIPKKGAEVAR  -0.408
33. HMSPRAIYVTTSDLNMRMQPSPNAYKRGVAPRGTELLVVEWGDDWSKVIFEGDTAYAASRYLSYVKDEP  -0.419
34. HMKKYLTETEAAAYLNMPVEEIKAAITKGEIEQYVKTSSGYTISVEELDKFFGQKAYDTMTSNNS  -0.43
35. HMGMYFTEMRKNEGLIALNGVAESNKRVSDLMDNLKDSSSFDAADIKAVKSGSGDASSLMDFELLVT  -0.452
36. HMDLLVWRVADEDAGERIDKLVVDSLDDVSRTAVQQWIKDGLVTVNGKTVKPNYKAAAGDEVAVSVPEPE  -0.514
37. HMDAPLIIAETRVDVPDATVSDAVMMLDLRNTNALLFKNSGSGVLNMVYRRGDGTIGWGEPQ  -0.543
38. HMGAYITYEVKPGDTLWDIANKFPGVSADNIKTWNKVDELIKAGERLKINTQTITDYSPDKYPS  -0.575
39. HMNPEDDLLKAIIMKYFSNAQVQVDKNVIEYLLKRVDRDYQNLYNILEKINILSLQRKSKITTHLIRDIM  -0.624
40. HMSMRIDTNTLNYYVQNAQISLSVLRTKINNLDQFLSGEKQPTFNQLSEIAKKINVPTGLLLLNKS  -0.698
41. HMDTFSVAIGTKTPDGSSVGEVKTISRDELLLLEDEVAEDPTKEIIFTGGTKDSAQAALDGWIDYNTNLAS  -0.716
42. HMSETAVTYNEDFEADGSLRPNEQAVLDAFTGVLKLTVSELEKKTGLRNVVPVVASLMAKGAVEVSEELK  -0.763
43. HMQTLQNNLKQIRSRVGLTQGELASRAGISRQAYSTLESGNANPSTEVSLRLAEALNERIESLFFLANQ  -0.846
44. HMGTRHPLPYAYARANTVLLEDDGDRLVLWAPENVSLTALGEVLRRFDVDALERESSSTLANRIAVAYAG  -0.896
45. HMDTDWDVSGVTPDQYRLLFSVLGGLAGVKDVGLNPDGLRIIHTPEALPSIEKAFQANGLKLKRNVD  -0.899
46. HMGEPQAWNELIGNLLRQWEARQTGWTPARKREALDRVLGAADPAALYTRLQGLLKSWTQAMTDADA  -0.956
47. HMELNESVLKALYEKFREMSGSKGFITEDEVIIQLEKENPDITPDQQAEIFKYLYDTPLQIY  -0.996
48. HMDVLIQEIGKRLRIQRLAMGLTQEELAKRAGISLSTLKLMEQQGKGSLQRLAKVAVVLDLDGDLRGLF  -1.01
49. HMDHAHWEEHEVKLLLTLAIQEKEKFNWNQFGLTREGWRNIYPHFPQYSRKQINNKFDFLKQKYRAWKDS  -1.09
50. HMSHSVLIDISQLRIGMYIQLDVGWMHHPFPVSSFRVASLEQIEALRTLNLAQVRYFPAKSDPV  -1.11
51. HMHHSGLRQSQFDEISRQIRSLLEMESLSLQELKTRMEDVPEEQLTKVVSYLLSEEIIRQENGRLQ  -1.35
52. HMPYHSEAWHKVMKSHWLTLSREEAYMHEGRTGASTINIVFQRELGREATQEEIESIYQEKSVLFNSYP  -1.37
53. HMVEMSNMELVREQYFQNLIYNVGDWVKDSKTEITGEVVKRGTNYLTIVQEDFTLHKVWLEDAESME  -1.46
54. HMTEKIEWYKEVLELEPNSKVFFPLARMLAEEQRFDEAVAVLEHGLERHGEFLEARLFFIELLHET  -2.04
55. HMSATQDAAIAVRIRDILSELDGYEDVTVTVTSGIVTMRGTTLDSEKIARLNDLTGRVEGVVAIENSVTET  -2.31
